In the experiment the target is T1, SARS‐CoV‐2 NSP3 SUD‐M domain (1356–1493), tag cleaved, for FP, P0DTD1.
T1 chain: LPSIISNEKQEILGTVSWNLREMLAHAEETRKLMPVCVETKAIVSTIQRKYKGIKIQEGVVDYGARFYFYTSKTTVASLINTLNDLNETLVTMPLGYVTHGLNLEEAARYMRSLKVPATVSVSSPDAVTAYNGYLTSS
The experiment is described as follows: fluorescence polarization (FP)-based affinity measurement. The conditions noted are these: chain shown with the change;; read off a plot. (In general: In fluorescence polarisation assays a small probe gives low polarisation when free and higher when bound to something large.)

As for QFTEEDLMFVLYGVTPY [PRDM14 wt peptide 196-211 H203M], the ratio to parent was found to be 5.6 fold.

QFTEEELHFVLYGVTPY [PRDM14 wt peptide 196-211 D201E]: the ratio to parent was found to be 14 fold.

Source of the values: PMC12102759.
